Assay results from publication PMC7919409, “Crystal structures of adenylylated and unadenylylated PII protein GlnK from Corynebacterium glutamicum” (Acta Crystallographica. Section D, Structural Biology, 2021).

B1: adenylylated GlnK from Corynebacterium glutamicum (natural protein, C. glutamicum)
chain: MKLITAIVKPFTLTDIKDALEQAGVQGMTVTETQGFGQQKGHTEVYRGAEYAVDFVPKVKIEVIISDAQAEEVINIIVETARTGKVGDGKVWMTNIEELVRVRTGERGEAAL
modifications: adenylylated Tyr51 (AMP moiety covalently linked to the hydroxyl group of Tyr51); almost fully adenylylated by mass spectrometry
notes: PII protein GlnK, Corynebacterium glutamicum, UniProt Q79VF2; untagged (stop codon inserted before the Xa-Strep stretch of the vector); Homotrimer; also called adGlnK; AdGlnK
B2: unmodified unadenylylated GlnK from Corynebacterium glutamicum (natural protein, C. glutamicum)
chain: SLHACRMKLITAIVKPFTLTDIKDALEQAGVQGMTVTETQGFGQQKGHTEVYRGAEYAVDFVPKVKIEVIISDAQAEEVINIIVETARTGKVGDGKVWMTNIEELVRVRTGERGEAAL
notes: not part of GlnK; PII protein GlnK, Corynebacterium glutamicum, UniProt Q79VF2; each subunit spans 112 residues; The His tag was cut off with thrombin; Homotrimer; also called unGlnK; UnGlnK; source: E. coli BL21(DE3), purified (HisTrap FF, thrombin cleavage of the His tag, Superdex 75 size-exclusion chromatography); not shown: His tag, N-terminal, cleaved

What was measured:
[1] = biological target: the molecule itself; experiment: crystal structure; adGlnK, 1.8 Å, space group P3(2), six chains per asymmetric unit; hanging drop, 292 K, MgCl2, CaCl2, MOPS/HEPES pH 7.1, MPD, PEG 1000, PEG 3350
[2] = biological target: the molecule itself; experiment: crystal structure; unGlnK, 2.2 Å, space group P4(3)2(1)2, one trimer per asymmetric unit; sitting drop, 292 K, 2.0 M ammonium sulfate, 5%(v/v) 2-propanol

Row | Protein | stoichiometry N [1] | stoichiometry N [2]
1 | B1 | 3 | 
2 | B2 |  | 3
